From patent publication US20080009025A1 (published 2008)

Target: T1, PIFtide (24 residue synthetic peptide encompassing the PDK1 binding site on PIF) (human)
T1 construct: also called wild type PIF peptide; 24 residue PIF peptide
T1 peptide: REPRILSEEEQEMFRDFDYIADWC
Assay: method not stated

B1: GST-PDK1[I119A] (enzyme, not shown: a dimerising Fc or GST; small tags and cut ends)
chain: MARTTSQLYDAVPIQSSVVLCSCPSPSMVRTQTESSTPPGIPGGSRQGPAMDGTAAEPRPGAGSLQHAQPPPQPRKKRPEDFKFGKILGEGSFSTVVLARELATSREYAIKILEKRHIAKENKVPYVTRERDVMSRLDHPFFVKLYFTFQDDEKLYFGLSYAKNGELLKYIRKIGSFDETCTRFYTAEIVSALEYLHGKGIIHRDLKPENILLNEDMHIQITDFGTAKVLSPESKQARANSFVGTAQYVSPELLTEKSACKSSDLWALGCIIYQLVAGLPPFRAGNEYLIFQKIIKLEYDFPEKFFPKARDLVEKLLVLDATKRLGCEEMEGYGPLKAHPFFESVTWENLHQQTPPKLTAYLPAMSEDDEDCYGNYDNLLSQFGCMQVSSSSSSHSLSASDTGLPQRSGSNIEQYIHDLDSNSFELDLQFSEDEKRLLLEKQAGGNPWHQFVENNLILKMGPVDKRKGLFARRRQLLLTEGPHLYYVDPVNKVLKGEIPWSQELRPEAKNFKTFFVHTPNRTYYLMDPSGNAHKWCRKIQEVWRQRYQSHPDAAVQ
fold decrease in affinity (against wild type PDK1): ~10 fold
